B1: scFv CGS-1 (scFv, V domains shown)
VH: QVQLVESGGGLVQPGGSLRLSCAVSGFTFSSYAMSWVRQAPGKGLEWVSAISGSGGSTYYADSVKGRFTISRDNSKNTLYLQMNSLRAEDTAVYYCARSLPKWGQGTLVTVSR
VL: SSELTQDPAVSVALGQTVRITCQGDSLRSYYASWYQQKPGQAPVLVTYGKNNRPSGIPDRFSGSSSGNTASLTITGAQAEDEADYYCNSSPVVLNGVVFGGGTKLTVL
notes: claims 6 and 8 say that 8 is a VH and 10 a VL; VH-linker-VL order follows from the cloning primers; Monomeric, FPLC-purified, in BIAcore; in the ELISA detected through a FLAG or myc tag
B2: scFv CGS-2 (scFv, V domains shown)
VH: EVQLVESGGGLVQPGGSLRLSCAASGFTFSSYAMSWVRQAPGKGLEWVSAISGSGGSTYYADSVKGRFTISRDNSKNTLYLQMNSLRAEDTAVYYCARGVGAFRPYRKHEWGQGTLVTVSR
VL: SSELTQDPAVSVALGQTVRITCQGDSLRSYYASWYQQKPGQAPVLVIYGKNNRPSGIPDRFSGSSSGNTASLTTTGAQAEDEADYYCNSSPFEHNLVVFGGGTKLTVL
notes: claims 7 and 9 say that 9 is a VH and 11 a VL; Monomeric, FPLC-purified, in BIAcore

How the values were obtained:
[1] = target: T1, 85 kD thermolysin fragment of FN from WI38VA cells (human, UniProt P02751 722-1351, limits assumed); assay: immunoblot
T1 construct: domain: 85 kD fragment spanning repeats 2-7 in addition to the N-terminus of ED-B; also called 85 kD fragment; 85 kD domain
Protocol: (§1) The antigens used for ELISA and immunoblotting were prepared as follows. FN was purified from human plasma and from the conditioned medium of the WI38VA13 cell line as previously reported (Zardi et al, 1987). Purified FNs were digested with thermolysin (protease type X; Sigma Chemical Co.) as reported by Carnemolla et al (1989). Native FN 110 kD (B−) and native FN 120 kD (B+) fragments (see FIG. 2) were purified from a FN digest as previously reported (Borsi et al, 1991). The large isoform of tenascin-C was purified as reported by Saginati et al (1992). Recombinant proteins were expressed and purified as described in Example 1. SDS-PAGE and Western blotting were carried out as described by Carnemolla et al (1989).
(§2) On the left hand side of FIG. 2B is a Coomassie stained gel of the protein fractions analysed by immunoblotting. Plasma FN (lane 1) and thermolysin digests of the protein (lane 3, containing the 110 kD protein, and lane 4, containing digested 110 kD protein) were not recognised by CGS-1 and CGS-2. In contrast, ED-B-rich FN from WI38VA cells, both intact (lane 2) and after increasing thermolysin digestion (lanes 5, 6 and 7) was recognised by both scFv fragments. […]

[2] = target: T2, mouse B-FN (mouse, UniProt P11276 33-2477, limits assumed); assay: immunohistochemistry
T2 construct: also called mouse B+ fibronectin

[3] = target: T3, native FN 120 kD (B+) thermolysin fragment (human, UniProt P02751 722-1721, limits assumed); assay: ELISA on coated antigen, background subtracted
T3 construct: domain: thermolysin treated FN domain 4, containing ED-B; also called 120 kD protein; 120 kD domain
Protocol: (§3) All antigens used in ELISA were diluted in PBS to between 50-100 μg/ml and coated at 4° C. overnight onto Immuno-Plate wells (Nunc, Roskilde, Denmark). Unbound antigen was removed with PBS and plates were then blocked with PBS containing 3% (w/v) bovine serum albumin (BSA) for 2 h at 37° C. This was followed by four washes with PBS containing 0.05% Tween 20 (PBST). Antibodies were then allowed to bind at 37° C. for 1.5 h; scFvs were preincubated with an antiserum directed against the tag sequence: mAb M2 [Kodak, New Haven Conn.] for the FLAG tag or 9E10 [ATCC, Rockville, Md.] for the myc tag. Control antibodies tested were mAbs BC-1 and IST-6. After four washes with PBST, the plates were incubated for 1 h at 37° C. with 1:2000 diluted (in PBST+3% BSA) biotinylated goat anti-mouse IgG (Bio-SPA Division, Milan, Italy). The washes were repeated and Streptavidin-biotinylated alkaline phosphatase complex (Bio-SPA Division, Milan, Italy) was added (1:800 diluted in PBST containing 2 mM MgCl2) for 1 h at 37° C. The reaction was developed using Phosphatase substrate tablets (Sigma) in 10% diethanolamine, pH 9.8 and the optical density was read at 405 nm.

[4] = target: T4, recombinant FN fragment 7B89 (human, UniProt P02751 1173-1537, limits assumed, biotinylated for BIAcore (sites not given)); assay: ELISA on coated antigen, background subtracted
T4 construct: domain: type III homology repeats 7B89; also called rec FN7B89; 78B9 [sic]
Protocol: as §3

[5] = target: T5, recombinant FN fragment 789 (human, UniProt P02751-1 1173-1446, limits assumed); assay: ELISA on coated antigen, background subtracted
T5 construct: domain: type III homology repeats 789; the text treats it as lacking ED-B; also called rec FN789
Protocol: as §3

[6] = target: T6, fibronectin purified from the conditioned medium of the SV40-transformed cell line WI38VA13 (human, UniProt P02751 32-2477); assay: ELISA on coated antigen, background subtracted
T6 construct: mature; Mixture of isoforms, most of them B+; also called FN WI38VA; WI38VA FN
Protocol: as §3

[7] = target: T7, recombinant FN domain 6 (human, UniProt P02751 1086-1172, limits assumed); assay: ELISA on coated antigen, background subtracted
T7 construct: domain: FN-6; also called rec FN-6; rec FN6
Protocol: as §3

[8] = target: T8, native FN 110 kD (B-) thermolysin fragment (human, UniProt P02751-1 722-1630, limits assumed); assay: ELISA on coated antigen, background subtracted
T8 construct: domain: thermolysin treated FN domain 4, without ED-B; also called 110 kD protein
Protocol: as §3

[9] = target: T9, recombinant ED-B domain of human fibronectin with a carboxy terminal hexahistidine tag (human, UniProt P02751 1266-1356); assay: ELISA on coated antigen, background subtracted
T9 construct: domain: ED-B; In BIAcore chemically immobilised at the N-terminal amino group; also called rec ED-B; recombinant ED-B peptide
Protocol: as §3

[10] = target: T4, recombinant FN fragment 7B89; assay: BIAcore, monomeric scFv on immobilised antigen
Protocol: (§4) Binding of monovalent scFv at various concentrations in the 0.1-1 μM range in PBS was measured on a BIAcore machine (Pharmacia Biosensor), using the following antigens: (i) 1000 Resonance Units (RU) of biotinylated recombinant FN fragment 7B89 immobilised on a streptavidin coated chip, which was bound specifically by 250 RU of scFv; (ii) 200 RU of recombinant ED-B, chemically immobilised at the N-terminal amino group, which was bound specifically by 600 RU of scFv; (iii) 3500 RU of ED-B-rich fibronectin WI38VA (see Example 3), which was bound specifically by 150 RU of scFv. Kinetic analysis of the data was performed according to the manufacturers' instructions. On the basis of qualitative BIAcore analysis of antibody-containing supernatants, one affinity-matured version of each scFv clone was selected: clone CGS-1 from selection with the 78B9 fragment and CGS-2 from selection with ED-B recombinant FN fragment. The association rate constants ($kon$) and dissociation rate constants ($koff$) are shown in Table 1, together with the calculated equilibrium dissociation constants (Kd) of both scFvs and the original clone 28SI. […] The improvement was due mainly to a slower kinetic dissociation constant (-10^-4 s^-1), as measured with monomeric antibody preparations (not shown).

[11] = target: T6, fibronectin purified from the …; assay: BIAcore, monomeric scFv on immobilised antigen
Protocol: as §4

[12] = target: T9, recombinant ED-B domain of human …; assay: BIAcore, monomeric scFv on immobilised antigen
Protocol: as §4

[13] = target: T5, recombinant FN fragment 789; assay: immunoblot of recombinant FN proteins expressed in E. coli
Protocol: The fine specificity of CGS-1 and CGS-2 was investigated further by immunoblotting using recombinant FN fragments and fusion proteins with or without the ED-B sequence. The FN fusion proteins were prepared as described by Carnemolla et al (1989). The results of these experiments are shown in FIG. 3; for the association of the schematic diagram to the structure of the domains of human FN, see Carnemolla et al, 1992.

[14] = target: T7, recombinant FN domain 6; assay: ELISA
[15] = target: T8, native FN 110 kD (B-) thermolysin …; assay: ELISA
[16] = target: T4, recombinant FN fragment 7B89; assay: BIAcore, monomeric scFv on immobilised antigen; Kd = koff/kon
Protocol: as §4

[17] = target: T6, fibronectin purified from the …; assay: as above
Protocol: as §4

[18] = target: T9, recombinant ED-B domain of human …; assay: as above
Protocol: as §4

[19] = target: T8, native FN 110 kD (B-) thermolysin …; assay: immunoblot
Protocol: as §1, §2

[20] = target: T10, chicken B-FN (chicken, UniProt P11722 22-2483, limits assumed); assay: immunohistochemistry
T10 construct: also called chicken B+ fibronectin

T5 sequence (P02751 other isoform, or with tags, fused parts or gaps limits assumed): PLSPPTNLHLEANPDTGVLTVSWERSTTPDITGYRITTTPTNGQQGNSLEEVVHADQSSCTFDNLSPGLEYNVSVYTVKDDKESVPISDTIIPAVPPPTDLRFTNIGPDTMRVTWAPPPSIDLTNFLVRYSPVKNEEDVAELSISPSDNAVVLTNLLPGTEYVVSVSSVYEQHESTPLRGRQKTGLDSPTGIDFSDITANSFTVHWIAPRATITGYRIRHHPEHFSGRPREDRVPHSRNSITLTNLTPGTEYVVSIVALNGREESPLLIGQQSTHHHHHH
T6 sequence (P02751 32-2477): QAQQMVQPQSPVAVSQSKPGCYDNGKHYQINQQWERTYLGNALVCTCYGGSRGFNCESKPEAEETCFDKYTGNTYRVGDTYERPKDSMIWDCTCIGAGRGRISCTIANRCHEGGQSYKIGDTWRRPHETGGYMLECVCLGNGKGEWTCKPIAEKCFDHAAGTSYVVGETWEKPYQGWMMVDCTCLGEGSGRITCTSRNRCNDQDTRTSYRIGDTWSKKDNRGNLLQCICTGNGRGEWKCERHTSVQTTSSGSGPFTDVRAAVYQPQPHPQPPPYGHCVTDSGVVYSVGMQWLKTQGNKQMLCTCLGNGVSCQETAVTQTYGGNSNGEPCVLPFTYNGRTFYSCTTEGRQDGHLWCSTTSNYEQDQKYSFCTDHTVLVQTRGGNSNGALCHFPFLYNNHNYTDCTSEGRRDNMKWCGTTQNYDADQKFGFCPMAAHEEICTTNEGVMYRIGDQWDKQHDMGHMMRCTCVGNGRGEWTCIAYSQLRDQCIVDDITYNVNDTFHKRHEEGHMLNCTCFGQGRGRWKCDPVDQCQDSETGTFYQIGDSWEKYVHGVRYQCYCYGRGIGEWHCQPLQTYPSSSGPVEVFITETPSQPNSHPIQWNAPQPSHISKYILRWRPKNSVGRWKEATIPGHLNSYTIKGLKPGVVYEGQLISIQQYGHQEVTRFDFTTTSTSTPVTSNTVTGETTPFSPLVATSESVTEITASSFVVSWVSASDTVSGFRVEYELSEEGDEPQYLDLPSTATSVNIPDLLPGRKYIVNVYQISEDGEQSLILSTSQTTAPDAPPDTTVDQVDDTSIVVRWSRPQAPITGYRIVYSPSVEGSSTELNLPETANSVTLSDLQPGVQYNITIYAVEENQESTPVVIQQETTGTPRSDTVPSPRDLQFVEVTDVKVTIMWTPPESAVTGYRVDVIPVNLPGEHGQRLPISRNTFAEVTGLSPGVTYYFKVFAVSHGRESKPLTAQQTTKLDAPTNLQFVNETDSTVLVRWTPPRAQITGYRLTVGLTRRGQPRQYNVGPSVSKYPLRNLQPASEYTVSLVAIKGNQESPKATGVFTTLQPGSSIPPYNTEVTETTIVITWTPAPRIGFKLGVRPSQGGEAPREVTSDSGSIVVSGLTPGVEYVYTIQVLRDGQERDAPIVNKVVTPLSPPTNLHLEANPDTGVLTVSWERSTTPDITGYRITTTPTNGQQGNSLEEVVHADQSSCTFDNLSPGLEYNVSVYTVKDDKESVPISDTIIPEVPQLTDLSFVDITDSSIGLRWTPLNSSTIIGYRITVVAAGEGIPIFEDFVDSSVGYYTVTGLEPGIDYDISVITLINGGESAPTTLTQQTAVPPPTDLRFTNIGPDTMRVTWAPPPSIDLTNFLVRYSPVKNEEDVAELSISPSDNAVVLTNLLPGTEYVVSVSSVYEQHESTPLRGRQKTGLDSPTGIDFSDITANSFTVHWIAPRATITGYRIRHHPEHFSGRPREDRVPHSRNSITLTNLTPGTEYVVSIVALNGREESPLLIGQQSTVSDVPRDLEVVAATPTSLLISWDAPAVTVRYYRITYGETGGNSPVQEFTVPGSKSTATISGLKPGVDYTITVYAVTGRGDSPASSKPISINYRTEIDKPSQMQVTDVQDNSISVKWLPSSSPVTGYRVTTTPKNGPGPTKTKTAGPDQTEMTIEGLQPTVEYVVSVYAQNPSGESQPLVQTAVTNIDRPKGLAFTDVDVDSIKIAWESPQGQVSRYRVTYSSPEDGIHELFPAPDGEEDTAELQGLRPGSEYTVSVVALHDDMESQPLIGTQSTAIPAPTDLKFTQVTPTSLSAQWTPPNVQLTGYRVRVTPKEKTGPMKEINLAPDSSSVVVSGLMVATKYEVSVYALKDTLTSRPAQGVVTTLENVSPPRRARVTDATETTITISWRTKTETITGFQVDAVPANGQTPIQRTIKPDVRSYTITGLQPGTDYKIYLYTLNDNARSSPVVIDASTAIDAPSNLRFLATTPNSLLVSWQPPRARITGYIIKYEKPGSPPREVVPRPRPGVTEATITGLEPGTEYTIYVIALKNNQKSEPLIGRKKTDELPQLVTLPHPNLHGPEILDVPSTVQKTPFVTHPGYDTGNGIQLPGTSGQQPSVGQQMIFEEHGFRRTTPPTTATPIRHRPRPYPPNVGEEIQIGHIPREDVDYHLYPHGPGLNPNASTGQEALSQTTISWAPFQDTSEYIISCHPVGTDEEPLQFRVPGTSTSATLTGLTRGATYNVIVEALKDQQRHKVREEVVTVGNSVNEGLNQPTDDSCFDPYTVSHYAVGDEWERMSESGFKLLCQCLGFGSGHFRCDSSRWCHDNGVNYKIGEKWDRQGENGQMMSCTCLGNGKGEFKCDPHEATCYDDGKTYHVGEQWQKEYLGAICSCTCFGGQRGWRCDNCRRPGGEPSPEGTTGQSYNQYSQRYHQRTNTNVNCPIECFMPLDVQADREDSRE
T8 sequence (P02751 other isoform, or with tags, fused parts or gaps limits assumed): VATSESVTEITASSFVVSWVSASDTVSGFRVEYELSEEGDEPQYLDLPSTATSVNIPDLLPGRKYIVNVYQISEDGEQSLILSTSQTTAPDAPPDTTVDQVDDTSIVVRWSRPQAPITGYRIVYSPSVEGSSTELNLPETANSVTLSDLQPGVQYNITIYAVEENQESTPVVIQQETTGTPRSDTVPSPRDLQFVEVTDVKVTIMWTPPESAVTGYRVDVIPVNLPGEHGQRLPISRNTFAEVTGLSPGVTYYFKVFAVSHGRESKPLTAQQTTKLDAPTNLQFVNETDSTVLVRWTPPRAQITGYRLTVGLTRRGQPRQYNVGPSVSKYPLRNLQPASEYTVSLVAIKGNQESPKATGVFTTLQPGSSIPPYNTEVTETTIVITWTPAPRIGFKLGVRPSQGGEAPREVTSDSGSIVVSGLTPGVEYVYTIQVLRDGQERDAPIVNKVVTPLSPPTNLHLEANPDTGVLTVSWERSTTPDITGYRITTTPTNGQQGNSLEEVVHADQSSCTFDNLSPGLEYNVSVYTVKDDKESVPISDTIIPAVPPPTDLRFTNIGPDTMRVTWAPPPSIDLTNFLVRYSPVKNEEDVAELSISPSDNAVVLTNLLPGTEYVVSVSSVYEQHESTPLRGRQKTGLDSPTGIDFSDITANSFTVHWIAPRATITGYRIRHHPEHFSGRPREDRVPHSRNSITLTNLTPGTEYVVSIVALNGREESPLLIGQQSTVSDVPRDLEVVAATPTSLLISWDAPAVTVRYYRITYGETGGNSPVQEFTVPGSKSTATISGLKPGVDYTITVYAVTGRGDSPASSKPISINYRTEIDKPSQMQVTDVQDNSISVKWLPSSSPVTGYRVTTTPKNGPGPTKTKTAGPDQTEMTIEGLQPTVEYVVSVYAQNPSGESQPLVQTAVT
T7 sequence (P02751 other isoform, or with tags, fused parts or gaps limits assumed): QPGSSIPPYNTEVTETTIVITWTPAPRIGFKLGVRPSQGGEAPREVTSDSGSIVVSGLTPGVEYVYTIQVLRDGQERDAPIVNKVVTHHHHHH
T9 sequence (P02751 other isoform, or with tags, fused parts or gaps limits assumed): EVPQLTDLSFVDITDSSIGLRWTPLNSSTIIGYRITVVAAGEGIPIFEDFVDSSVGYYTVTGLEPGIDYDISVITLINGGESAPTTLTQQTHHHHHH
T4 sequence (P02751 other isoform, or with tags, fused parts or gaps limits assumed): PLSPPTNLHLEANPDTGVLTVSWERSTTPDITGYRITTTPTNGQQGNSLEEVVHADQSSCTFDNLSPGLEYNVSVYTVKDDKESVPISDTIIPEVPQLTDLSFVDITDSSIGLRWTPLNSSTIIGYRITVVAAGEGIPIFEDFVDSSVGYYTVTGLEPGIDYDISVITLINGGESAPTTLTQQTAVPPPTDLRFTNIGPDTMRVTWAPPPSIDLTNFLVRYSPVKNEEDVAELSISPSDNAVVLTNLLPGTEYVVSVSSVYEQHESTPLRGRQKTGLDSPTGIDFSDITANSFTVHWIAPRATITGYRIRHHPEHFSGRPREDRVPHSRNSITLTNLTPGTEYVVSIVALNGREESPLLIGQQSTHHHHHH
T1 sequence (P02751 722-1351 limits assumed): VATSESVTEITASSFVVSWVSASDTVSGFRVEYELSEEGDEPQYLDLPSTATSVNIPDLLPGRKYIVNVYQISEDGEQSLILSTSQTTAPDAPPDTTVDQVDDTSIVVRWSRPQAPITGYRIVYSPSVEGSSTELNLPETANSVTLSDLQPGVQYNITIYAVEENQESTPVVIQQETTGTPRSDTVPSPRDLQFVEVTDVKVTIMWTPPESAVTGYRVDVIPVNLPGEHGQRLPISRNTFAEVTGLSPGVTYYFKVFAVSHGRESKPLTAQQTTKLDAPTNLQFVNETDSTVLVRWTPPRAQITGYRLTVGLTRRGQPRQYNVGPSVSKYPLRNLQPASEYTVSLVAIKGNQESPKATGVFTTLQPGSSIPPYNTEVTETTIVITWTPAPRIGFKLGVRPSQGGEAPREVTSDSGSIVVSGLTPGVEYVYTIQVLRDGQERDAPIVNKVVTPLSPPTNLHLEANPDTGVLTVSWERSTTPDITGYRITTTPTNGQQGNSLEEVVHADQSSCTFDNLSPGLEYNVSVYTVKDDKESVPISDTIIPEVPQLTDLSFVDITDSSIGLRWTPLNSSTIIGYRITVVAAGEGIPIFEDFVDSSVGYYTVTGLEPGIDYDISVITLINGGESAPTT

| Binder | binding result [2] | OD at 405 nm [3] [OD 405 nm] | OD at 405 nm [4] [OD 405 nm] | OD at 405 nm [5] [OD 405 nm] | OD at 405 nm [6] [OD 405 nm] | OD at 405 nm [7] [OD 405 nm] | OD at 405 nm [8] [OD 405 nm] | OD at 405 nm [9] [OD 405 nm] | koff [10] [s⁻¹] | kon [10] [M⁻¹ s⁻¹] | koff [11] [s⁻¹] | kon [11] [M⁻¹ s⁻¹] | koff [12] [s⁻¹] | kon [12] [M⁻¹ s⁻¹] | binding result [13] | binding result [14] | Kd [16] [nM] | Kd [17] [nM] | Kd [18] [nM] | also measured |
| --- | --- | --- | --- | --- | --- | --- | --- | --- | --- | --- | --- | --- | --- | --- | --- | --- | --- | --- | --- | --- |
| B1 | binds | 0.82 | 1.11 | 0.01 | 1.16 | 0.01 | 0.03 | 1.21 | 0.0039 | 110000 | 0.005 | 410000 | 0.007 | 130000 | no binding | no binding | 35 | 12 | 54 | binding result [1]: no binding; binding result [15]: no binding |
| B2 | binds | 0.81 | 1.02 | 0.01 | 0.72 | 0.01 | 0.01 | 1.32 | 0.00023 | 110000 | 0.00065 | 290000 | 0.00015 | 130000 | no binding | no binding | 2.1 | 2.4 | 1.1 | binding result [19]: no binding; binding result [20]: binds |

From patent US8703143 (PHILOGEN S P A, dated 2014)
